T1: SAPK3 (Rattus norvegicus, UniProt Q63538)
T1 sequence (Q63538 1-367): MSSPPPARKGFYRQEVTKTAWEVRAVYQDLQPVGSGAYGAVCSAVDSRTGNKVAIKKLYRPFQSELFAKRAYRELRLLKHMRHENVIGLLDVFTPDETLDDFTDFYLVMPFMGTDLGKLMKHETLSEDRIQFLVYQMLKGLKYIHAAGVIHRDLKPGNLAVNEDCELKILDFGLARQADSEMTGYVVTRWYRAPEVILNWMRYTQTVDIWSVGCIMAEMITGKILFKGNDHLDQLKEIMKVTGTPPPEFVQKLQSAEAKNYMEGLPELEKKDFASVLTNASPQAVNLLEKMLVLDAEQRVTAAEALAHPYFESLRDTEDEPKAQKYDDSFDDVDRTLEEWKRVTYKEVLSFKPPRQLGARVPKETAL

T2: SAPK4 (Homo sapiens, UniProt O15264)
T2 sequence (O15264 1-365): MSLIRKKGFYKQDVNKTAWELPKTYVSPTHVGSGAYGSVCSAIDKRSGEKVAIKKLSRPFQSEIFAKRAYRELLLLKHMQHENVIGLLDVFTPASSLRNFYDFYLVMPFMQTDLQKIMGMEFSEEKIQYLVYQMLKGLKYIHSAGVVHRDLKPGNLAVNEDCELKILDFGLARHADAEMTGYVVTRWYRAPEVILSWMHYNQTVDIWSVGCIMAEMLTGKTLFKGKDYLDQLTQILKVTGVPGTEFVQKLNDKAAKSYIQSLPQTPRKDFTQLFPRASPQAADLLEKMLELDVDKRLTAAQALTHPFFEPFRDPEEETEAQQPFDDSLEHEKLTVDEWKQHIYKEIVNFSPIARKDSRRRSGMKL

B1: SKK3: SAP kinase kinase 3, upstream activator of SAPK2a, SAPK2b, SAPK3 and SAPK4 (protein)
chain: MSQSKGKKRNPGLKIPKEAFEQPQTSSTPPRDLDSKACISIGNQNFEVKADDLEPIMELGRGAYGVVEKMRHVPSGQIMAVKRIRATVNSQEQKRLLMDLDISMRTVDCPFTVTFYGALFREGDVWICMELMDTSLDKFYKQVIDKGQTIPEDILGKIAVSIVKALEHLHSKLSVIHRDVKPSNVLINALGQVKMCDFGISGYLVDSVAKTIDAGCKPYMAPERINPELNQKGYSVKSDIWSLGITMIELAILRFPYDSWGTPFQQLKQVVEEPSPQLPADKFSAEFVDFTSQCLKKNSKERPTYPELMQHPFFTLHESKGTDVASFVKLILGD
B2: EGF: growth factor stimulus from Boehringer (protein, UniProt P01133 23-1207, looked up)
Pro-epidermal growth factor: PQHWSCPEGTLAGNGNSTCVGPAPFLIFSHGNSIFRIDTEGTNYEQLVVDAGVSVIMDFHYNEKRIYWVDLERQLLQRVFLNGSRQERVCNIEKNVSGMAINWINEEVIWSNQQEGIITVTDMKGNNSHILLSALKYPANVAVDPVERFIFWSSEVAGSLYRADLDGVGVKALLETSEKITAVSLDVLDKRLFWIQYNREGSNSLICSCDYDGGSVHISKHPTQHNLFAMSLFGDRIFYSTWKMKTIWIANKHTGKDMVRINLHSSFVPLGELKVVHPLAQPKAEDDTWEPEQKLCKLRKGNCSSTVCGQDLQSHLCMCAEGYALSRDRKYCEDVNECAFWNHGCTLGCKNTPGSYYCTCPVGFVLLPDGKRCHQLVSCPRNVSECSHDCVLTSEGPLCFCPEGSVLERDGKTCSGCSSPDNGGCSQLCVPLSPVSWECDCFPGYDLQLDEKSCAASGPQPFLLFANSQDIRHMHFDGTDYGTLLSQQMGMVYALDHDPVENKIYFAHTALKWIERANMDGSQRERLIEEGVDVPEGLAVDWIGRRFYWTDRGKSLIGRSDLNGKRSKIITKENISQPRGIAVHPMAKRLFWTDTGINPRIESSSLQGLGRLVIASSDLIWPSGITIDFLTDKLYWCDAKQSVIEMANLDGSKRRRLTQNDVGHPFAVAVFEDYVWFSDWAMPSVMRVNKRTGKDRVRLQGSMLKPSSLVVVHPLAKPGADPCLYQNGGCEHICKKRLGTAWCSCREGFMKASDGKTCLALDGHQLLAGGEVDLKNQVTPLDILSKTRVSEDNITESQHMLVAEIMVSDQDDCAPVGCSMYARCISEGEDATCQCLKGFAGDGKLCSDIDECEMGVPVCPPASSKCINTEGGYVCRCSEGYQGDGIHCLDIDECQLGEHSCGENASCTNTEGGYTCMCAGRLSEPGLICPDSTPPPHLREDDHHYSVRNSDSECPLSHDGYCLHDGVCMYIEALDKYACNCVVGYIGERCQYRDLKWWELRHAGHGQQQKVIVVAVCVVVLVMLLLLSLWGAHYYRTQKLLSKNPKNPYEESSRDVRSRRPADTEDGMSSCPQPWFVVIKEHQDLKNGGQPVAGEDGQAADGSMQPTSWRQEPQLCGMGTEQGCWIPVSSDKGSCPQVMERSFHMPSYGTQTLEGGVEKPHSLLSANPLWQQRALDPPHQMELTQ
modifications: Pro-epidermal growth factor
notes: growth factor stimulus from Boehringer

Assays:
[1] = molecular target: T1, SAPK3; assay: Co-transfection of SAPK3 with SKK3 into COS cells (FIG. 14); format: cell-based; design: expressed in transfected cells; host or cells: COS-1 cells (vector pSG5), alone or with human SKK3 or MEK kinase
Description: FIG. 14. SKK3 activates SAPK3 in transfected cells. COS-1 cells were transiently transfected with DNA expressing SAPK3 or co-transfected with either SKK3 or MEK kinase (MEKK). Cells were stimulated in DMEM for 15 min or with 0.5 M sorbitol. After stimulation and lysis, SAPK3 was immunoprecipitated from the cell lysates using an anti-SAPK3 antibody raised against the C-terminal 16 residues of SAPK3 (see Methods) and activity measured using MBP as the substrate.
Cell culture and transient transfections. 293, KB and COS-7 cells were cultured in Dulbecco's modified Eagles' Medium (DMEM) supplemented with 10% foetal calf serum, at 37° C., in an atmosphere of 5% CO2. Transfections of 293 cells were carried out using the calcium-phosphate method. Cells were split to a density of 2×106 per 10 cm dish, and after 12 h at 37° C., 10 μg of plasmid DNA in 0.45 ml of sterile water was added to 50 μl of sterile CaCl2, and then 0.5 ml of sterile buffer composed of 50 mM N,N-bis[2-hydroxyethyl]-2-aminoethanesulphonic acid/HCl pH 6.96, 0.28 M NaCl and 1.5 mM Na2HPO4 was added. The resulting mixture was vortexed for 1 min, allowed to stand at room temperature for 20 min, and then added dropwise to a 10 cm dish of 293 cells. The cells were placed in an atmosphere of 3% CO2 for 16 h at 37° C., then the medium was aspirated and replaced with new DMEM containing 10% foetal calf serum. […]

[2] = molecular target: T2, SAPK4; assay: Co-transfection of SAPK4 with SKK3 into COS cells; format: cell-based; design: expressed in transfected cells; host or cells: COS1 cells, co-transfected with human SKK3; details: n=3
Description: For bacterial expression, the open reading frames of human cDNA clones hSAPK2B2, hSAPK32 and hSAPK412 were amplified by PCR and subcloned as EcoRI fragments into expression vector pGEX4T-1 (Pharmacia), followed by transformation into E. coli strain BL21(DE3). The transformed bacteria were grown to an absorbance of 0.6 at 600 nm and induced with 0.4 mM isopropyl-1-thio-β-galactopyranoside (IPTG). […] For expression of c-myc epitope-tagged SAPK4, PCR was used to introduce the nucleotide sequence encoding the amino acid sequence […] (SEQ. ID. NO: 4) at the carboxy-terminus of SAPK4, followed by a stop codon. The resulting EcoRI/NotI fragment was subcloned into the mammalian expression vector pcDNA3.1 (Invitrogen). […] PCR fragments were verified by DNA sequencing. Transfections into COS1 cells were done as described in Example 4 and Cuenda et al, 1997.
We have shown previously that SKK3 accounts for 95% and SKK2 for 5% of the SAPK2a activator detected after Mono S chromatography of lysates from KB cells that have been stressed in several ways or stimulated with IL1 (Cuenda et al, 1996; Meier et al, 1996). […] SKK3 was also the only activator of SAPK4 after subjecting KB cells to osmotic stress using sorbitol (data not shown). Further evidence that SKK3 can activate SAPK4 in vivo was obtained by co-transfection into COS cells. […]

[3] = molecular target: T1, SAPK3; assay: Activation of transfected myc epitope-tagged SAPK3 in KB and 293 cells, immunoprecipitation and MBP assay; format: cell-based, human; design: expressed in transfected cells; host or cells: human KB and 293 cells (vector pSG5); details: FIG. 11A
Description: FIG. 11. SAPK3 is activated by cytokines and cellular stresses in KB and 293 cells. KB cells (A) or 293 cells (B) were transiently transfected with a DNA construct expressing a myc epitope-tagged SAPK3. Cells in DMEM were stimulated for 15 min with 0.5 M sorbitol (an osmotic shock), 20 ng/ml IL-1α, 100 ng/ml TNFa, 0.5 mM sodium arsenite (a chemical stress), 100 ng/ml of EGF or 300 ng/ml TPA, or for 30 min with […] anisomycin or 10 min with 100 ng/ml IGF-1. UV-C irradiation of cells was carried out at 60 J/m2 (KB cells) or 200 J/m2 (293 cells) and the cells then left for a further 30 min at 37° C. before lysis. The myc epitope-tagged SAPK3 was immunoprecipitated from cell lysates using the 9E10 monoclonal antibody and assayed with MBP as substrate. […] After UV-C irradiation, SAPK3 activity in the extracts was 0.18 U/mg (KB cells) and 0.1 U/mg (293 cells).
Cell culture and transient transfections. 293, KB and COS-7 cells were cultured in Dulbecco's modified Eagles' Medium (DMEM) supplemented with 10% foetal calf serum, at 37° C., in an atmosphere of 5% CO2. Transfections of 293 cells were carried out using the calcium-phosphate method. […]

| Molecule | Elevation of SAPK3 activity by coexpression [1] [fold] | Greater activation of transfected SAPK3 by osmotic shock where cotransfected ([1]; osmotic shock) [fold] | Elevation of SAPK4 activity by co-expression [2] [fold] | Activation of transfected SAPK3 (in words) [3] |
| --- | --- | --- | --- | --- |
| B1 | 10 | 30 | 12.5±0.63 |  |
| B2 |  |  |  | more weakly |

Source: patent US6617117B1, “MAP kinases: polypeptides, polynucleotides and uses thereof” (Medical Research Council, priority 1996, dated 2003)
